According to US20210347873A1 (SHANGHAI PHARMAEXPLORER, published 2021):

Legend:
[1] = target: T1, human BLyS (full length, arginine 132 mutated to histidine) on CHO-K1 cells (human, UniProt Q9Y275 1-285); experiment: flow cytometry (FACS) on CHO-K1 hBLyS cells, Alexa 488 secondary antibody
T1 construct: also called hBLyS; CHO-K1 hBLyS
Method: (§1) The medium was aspirated completely, and the cells were rinsed once with PBS buffer (purchased from Invitrogen) and then treated with cell dispersion solution (TrypLE™ Express Enzyme, purchased from Life technology) and collected. The detailed steps are as follows: the cells were rinsed once with PBS buffer, after counting, the cells were diluted to 2×10⁶ cells/ml with PBS buffer, blocked with 2% (w/w) fetal bovine serum and incubated on ice for 30 minutes. 200 μL of which per well was aliquoted into a 96-well FACS plate and centrifuged at 2000 rpm at 4° C., then each 100 μL of the lead antibodies obtained from Embodiment 1 and 2 were aliquoted into each well and incubated on ice for 1 hour. […] After centrifuged and rinsed 3 times with FACS buffer, cells were suspended with 200 μL of FACS buffer and the results were detected and analyzed by FACS (FACS Calibur, purchased from BD). It was shown in Tables 12-13 that the lead antibody could bind to human BLyS protein on the cell surface and the lead antibody could cross-react with cynomolgus BLyS. The data in the table is MFI, the average fluorescence intensity of the cell population.

[2] = target: T2, cynomolgus BLyS (full length, arginine 132 mutated to histidine) on CHO-K1 cells (cynomolgus, UniProt Q9Y275 1-285 (human entry)); experiment: flow cytometry (FACS) on CHO-K1 cynoBLyS cells, Alexa 488 secondary antibody
T2 construct: also called cyno BLyS; CHO-K1 cynoBLyS
T2 chain: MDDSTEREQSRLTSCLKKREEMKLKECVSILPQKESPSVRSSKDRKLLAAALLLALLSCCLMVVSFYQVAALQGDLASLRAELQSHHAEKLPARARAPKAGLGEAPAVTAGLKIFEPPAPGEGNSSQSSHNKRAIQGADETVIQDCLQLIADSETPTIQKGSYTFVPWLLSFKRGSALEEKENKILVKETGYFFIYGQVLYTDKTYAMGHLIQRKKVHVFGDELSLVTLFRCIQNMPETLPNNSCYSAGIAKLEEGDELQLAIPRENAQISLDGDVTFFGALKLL
Method: as §1

[3] = target: T3, human APRIL protein (human, UniProt O75888 105-250, limits assumed); experiment: ELISA, coated APRIL; antibody 13.3 nM
T3 construct: Bought protein; also called recombinant APRIL protein
T3 sequence (looked up): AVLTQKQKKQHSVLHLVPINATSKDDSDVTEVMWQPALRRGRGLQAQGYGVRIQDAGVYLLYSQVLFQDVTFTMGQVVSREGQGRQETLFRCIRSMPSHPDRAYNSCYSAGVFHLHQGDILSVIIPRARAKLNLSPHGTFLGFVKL
Method: (§2) To test whether the BLyS antibody cross-reacted with human APRIL protein, APRIL protein (purchased from R & D Systems) was first diluted to a final concentration of 1.0 μg/mL with PBS, and then 50 μL of which per well was aliquoted into a 96-well ELISA plate, and the plate was subsequently sealed with plastic film and incubated at 4° C. overnight. On the next day the plate was rinsed four times with the plate washing buffer [PBS buffer containing 0.0500 (v/v) Tween20] and a blocking solution [PBS buffer containing 0.05 (v/v) Tween20 and 1 (w/w) BSA] was added, then the protein was blocked at 37° C. for 2 hours. The blocking solution was removed and 100 μL per well of the lead antibodies prepared in Embodiment 1 and 2 were added in. After incubation for 1 hour at 37° C., the plate was rinsed four times with the plate washing buffer [PBS buffer containing 0.05 (v/v) Tween20]. HRP-labeled (horseradish peroxidase) secondary antibody (purchased from Sigma) was added in and incubated at 37° C. for 1 hour. The plate was then rinsed four times with the plate washing buffer [PBS buffer containing 0.050 (v/v) Tween20]. 100 μL of TMB substrate was aliquoted into each well and after incubation at room temperature for 5 minutes, 100 μL of stop solution (1.0 N HCl) was aliquoted into each well. A₄₅₀ₙₘ values were read via an ELISA plate reader (SpectraMax M5e purchased from Molecular Devices) and the results were shown in FIGS. 6A-6B and Table 11. […] As used herein, the IgG control is human IgG and the data in the table is GD number at 450 nm.

[4] = target: T3, human APRIL protein; experiment: ELISA, coated APRIL; antibody 2.67 nM
Method: as §2

[5] = target: T3, human APRIL protein; experiment: ELISA, coated APRIL; antibody 66.7 nM
Method: as §2

[6] = target: T3, human APRIL protein; experiment: ELISA, coated APRIL; antibody 0.107 nM
Method: as §2

[7] = target: T3, human APRIL protein; experiment: ELISA, coated APRIL; antibody 0.534 nM
Method: as §2

[8] = target: T3, human APRIL protein; experiment: ELISA, coated APRIL; antibody 0.0213 nM
Method: as §2

[9] = target: T3, human APRIL protein; experiment: ELISA, coated APRIL; antibody 0.00427 nM
Method: as §2

[10] = target: T3, human APRIL protein; experiment: ELISA, coated APRIL; antibody 0 nM (blank)
Method: as §2

[11] = target: T3, human APRIL protein; experiment: ELISA: APRIL coated at 1.0 µg/mL, antibody titrated, HRP secondary antibody
Method: as §2

T1 sequence (Q9Y275 other isoform, or with tags, fused parts or gaps limits assumed, change not shown): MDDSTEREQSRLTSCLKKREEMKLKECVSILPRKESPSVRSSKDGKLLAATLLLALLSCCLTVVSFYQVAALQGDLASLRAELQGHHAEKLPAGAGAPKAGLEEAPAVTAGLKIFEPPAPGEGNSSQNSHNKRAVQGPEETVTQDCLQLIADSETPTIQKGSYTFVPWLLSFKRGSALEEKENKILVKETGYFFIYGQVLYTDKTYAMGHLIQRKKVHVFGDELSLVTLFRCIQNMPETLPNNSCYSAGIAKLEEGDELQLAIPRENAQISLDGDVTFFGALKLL

B1: 20D1B6E9E5 (antibody, V domains shown)
VH: EVQLQQSVAELVRPGASVKLSCTASDFNIKNTYIHWVKQRPEQGLEWIGRIDPVNGNTKYAPKFQDKATIIVDTYSNTAYLQLSSLASEDTAVYYCARWPITTIVATDWYFDVWGTGTTVTVSS
VL: DVLMTQTQLALPVRLGEQASISCRSSQSIVNSNGNTYLEWYLQKPGQSPKLLIYKVSNRFSGVPDRFSGSGSGTDFTLKISRVEAEDLGVYYCFQGSHVPWTFGGGTKLEIK
notes: Mouse hybridoma antibody purified on Protein G
In the case of B1, the “EC50 (read off the curve)” value [1] is reported as about 0.2 nM and the “EC50 (read off the curve)” value [2] is reported as about 0.2 nM.

B2: 78C11D2D12 (antibody, V domains shown)
VH: QVQLQQSGAELVRPGTSVKISCKASGYAFTNYWLGWVKQRPGHGLEWIGDIYPGSGNTYYNEKFKGKATLTADKSSSTAYMQLSSLTSEDSAVFFCAAYLYAMDYWGQGTSVTVSS
VL: QIVLTQSPAIMSASPGEKVTITCSASSSVSYMHWFQQKPGTSPKLWIYSASNLASGVPARFSGSGSGTSYSLTISRMEAEDAATYYCQQRGSYPFTFGSGTKLEIK
notes: as for B1
An OD450 nm [3] of 0.0703, an OD450 nm [4] of 0.0613 and an OD450 nm [5] of 0.138 were found for B2 in this work. For the same binder, the OD450 nm [6] was 0.0549, the OD450 nm [7] was 0.0553 and the OD450 nm [8] was 0.0534. For the same binder, the OD450 nm [9] was 0.0564, the OD450 nm [10] was 0.0565 and the “EC50 (read off the curve)” value [1] was about 0.2 nM. The binding result [11] was “no binding (tested: 66.7 nM)” and the “EC50 (read off the curve)” value [2] was about 0.2 nM.

B3: 93C6F10D3 (antibody, V domains shown)
VH: EVQLVESGGGLVTPGGSLKLSCVASGFAFSTYGMSWVRQTPERRLEWVAYISGGGGSIYYPDSVKGRFTISRDNAKNILYLQMSSLKSEDTAMYHCTRHPDLLLRYDYALDHWGQGTSVTVSS
VL: DIQMTQSPASLSASVGETVTITCRASENIHIYLAWYQQKQGKSPQLLVYNGKTLADGVPSRFSGSGSGTQYSLKINTLQPEDFGNYYCQHFWNSTWTFGGGTKLEIK
notes: as for B1
In the case of B3, the “EC50 (read off the curve)” value [1] is reported as about 0.1 nM and the “EC50 (read off the curve)” value [2] is reported as about 0.1 nM.

B4: 89A2G5E7 (antibody, V domains shown)
VH: QVQLKESGPGLVAPSQSLSITCTVSGLSLNSHDISWIRQPPGKGLEWLGVIWSGGGTKYNSAFMSRLSISKDNSKSQVFLKMNSLHTDDTAIYYCVRTPSMITYSAMDYWGQGTSVTVSS
VL: EIVLTQSPALMAASPGEKVTITCSVSSSISSRNLHWYQQKSQTSPKAWIHATSNLASGVPVRFSGSGSGTSYSLTISSMEAEDAATYYCQQWSSYPLTFGSGTKLEIK
notes: as for B1
An OD450 nm [3] of 0.0973, an OD450 nm [4] of 0.0614 and an OD450 nm [5] of 0.196 were found for B4 in this work. It also gave an OD450 nm [6] of 0.0548, an OD450 nm [7] of 0.0565 and an OD450 nm [8] of 0.0547. The OD450 nm [9] was 0.0578, the OD450 nm [10] was 0.0655 and the “EC50 (read off the curve)” value [1] was about 0.7 nM. The binding result [11] was “no binding (tested: 66.7 nM)” and the “EC50 (read off the curve)” value [2] was about 0.7 nM.

B5: 97E7B3F2 (antibody, V domains shown)
VH: EVQLQQSGPELVKSGASVKISCKASGYTFTDHKMHWVKQSHGKSLEWIGYISPYNGGTGYNQKFKSKVTLTVDISSSTAYMELRSLTSEDSAVYYCARWGFYDVMDSWGQGTSVTVSS
VL: DVLLTQTPLSLPVSLGDQASISCRSSQTIVHIIGDTYLEWYLQKPGQSPKLLIYKVSNRFSGVPDRFSGSGAGTDFTLKISRVEAEDLGVYYCFQGSHVPRTFGGGTKLEIK
notes: as for B1
With B5 the “EC50 (read off the curve)” value [1] was about 0.1 nM and the “EC50 (read off the curve)” value [2] was about 0.1 nM.

B6: 2-1G11 (antibody, human IgG1, V domains shown)
VH: EVQLVESRGGVVQPGRSLRLSCAASGFTFSSYGMHWVRQAPGKGLEWVAVISYDGSNKYYADSVKGRFTISRDNSKNTLYLQMNSLRAEDAAVYYCARDRVDILTGYSIYGMDVWGQGTTVTVSS
VL: EIVMTQSPATLSLSPGERATLSCRASQSVSSYLAWYQQKPGQAPRLLIYDASKRATGIPARFSGSGSGTDFTLTISSLEPEDFAVYYCQQRSNWPLTFGGGTKVEIK
An OD450 nm [3] of 0.137, an OD450 nm [4] of 0.0901 and an OD450 nm [5] of 0.296 were found for B6 in this work. For the same binder, the OD450 nm [6] was 0.0699, the OD450 nm [7] was 0.0668 and the OD450 nm [8] was 0.0733. The OD450 nm [9] was 0.107, the OD450 nm [10] was 0.0847 and the “EC50 (read off the curve)” value [1] was about 0.09 nM. For the same binder, the binding result [11] was “no binding (tested: 66.7 nM)” and the “EC50 (read off the curve)” value [2] was about 0.1 nM.

B7: 35E6F7C3 (antibody, V domains shown)
VH: EVQLQQSGAELVKPGASVKLSCTAAGFNIQDTYIHWVKQRPEQGLEWIGRIDPANANTVYDPKFQGKATITADTSSNTAYLQVSSLTSEDTAVYYCASPVITAGFAYWGQGTLVTVSA
VL: QIVLTQSPAIMSASPGEKVTMTCGASSSVNYVHWYQQKSGTSPKRWIYDTSKLASGVPARFSGSGSGTSYSLTISSMEAEDAATYYCQQWTRSPLTFGAGTKVELK
notes: as for B1
An OD450 nm [3] of 0.0567, an OD450 nm [4] of 0.0561 and an OD450 nm [5] of 0.0703 were found for B7 in this work. For the same binder, the OD450 nm [6] was 0.0537, the OD450 nm [7] was 0.0544 and the OD450 nm [8] was 0.0532. For the same binder, the OD450 nm [9] was 0.0553, the OD450 nm [10] was 0.0542 and the binding result [11] was “no binding (tested: 66.7 nM)”. For the same binder, the “EC50 (read off the curve)” value [2] was about 0.7 nM.
